Assays:
[1] = Fe(III) affinity of Fe(III) BP from competition with Fe(III) chelates / Fe(III) citrate; assay type: binding; settings: E57D mutation; assuming logK=10.25 for 1:1 Fe(III) citrate complex; unit inferred
Source text: Family of biosensors. A set of eleven bPBPs with widely varying ligand-binding specificities was selected for engineering biosensor function (Table 2). All were from E. coli except Fe(III) BP, which is from Haemophilus influenzae. Binding specificities and affinities of these proteins for their respective ligands have been characterized (references in Table 2). […] Most of these bPBPs bind at most two or three related ligands with high affinity (micromolar or better). […] Measured ligand dissociation constants in these proteins are typically in the range of 0.1 to 1 μM.
Cysteine point mutations were introduced by the PCR overlap method (Ho et al., Gene 77:51-59, 1989). Mutant proteins typically expressed as well as the wild type protein. […] In the case of Fe(III) BP, all mutations were constructed in the E57D background. […] This permitted straightforward determination of Fe(III) affinity by direct titration with Fe(III) citrate at nanomolar concentrations of Fe(III) BP.

[2] = Fluorimetric titration of Fe(III) BP (E57D) conjugates with Fe(III) citrate; assay type: binding; settings: E57D background, read-out: Kd of Fe(III) BP conjugate
Method: (§1) Fluorimetry. All measurements were conducted with an SLM Aminco-Bowman series 2 fluorimeter, with sample stirring at 25° C. Fluorescence emission spectra were acquired with excitation and emission slit widths of 4 and 8 nm, respectively. Photomultiplier tube potential was maintained between 400 and 800 volts. Protein concentrations were in the range of 50 to 1000 nM. Fluorophore-specific excitation was at the following approximate wavelengths: tryptophan, 290 nm; acrylodan, 390 nm; fluorescein, 485 nm; pyrene, 340 nm; NBD and NBDE, 490 nm; JPW4039, 485 nm; JPW4042, 470 nm; JPW4045, 470 nm.
Corrections were made for dilution of the protein and for background signal from buffer. Binding curves were fit to binding isotherms using equation 3 or 4, as appropriate.
Analyte affinity measurements. […] The emission wavelength monitored was that of maximum difference in intensity between the ligand-free and bound states. For each conjugate, fluorescence intensiometric observations were fit to a hyperbolic binding isotherm for a two-state model (Marvin et al., Proc. Natl. Acad. Sci. USA 94:4366-4371, 1997): […]

[3] = Fluorescence emission spectra without and with saturating ligand (wavelength shift, ΔIstd, ΔRmax); settings: unbound vs ligand-saturated; for ΔIstd: standard intensity change; for ΔRmax: standard ratiometric change
Method: as §1
Assessment of fluorescent biosensor function. Fluorescence emission spectra of bPBP-fluorophore conjugates were recorded in the absence and presence of saturating ligand concentrations. Spectral changes were characterized by four parameters: wavelength shift (the difference between the wavelengths of emission maximum in the unbound and ligand-saturated states), direction of intensity change (increase or decrease in intensity at the wavelengths of maximum emission in the two states), standard intensity change (ΔIstd), and standard ratiometric change (ΔR). ΔIstd is defined as the normalized intensity change relative to the average intensity, determined at the wavelength mid-point between the two emission maxima:
[formula] where λstd=(λmax, unbound+λmax, saturated)/2 and I1, I2 are the fluorescence intensities at λstd of each spectrum respectively (FIG. 4A). ΔR is defined in terms of two emission bands, A1 ([λ1, λ2]) and A2 ([λ3, λ4]) (FIG. 4B):
[formula] where ^∘A1, […] the areas in the absence of ligand, and ^∞A1, ^∞A2 the areas in the presence of saturating ligand. A computer program was used to enumerate ΔR for all possible pairs of wavelength bands in the two spectra, to identify the optimal sensing condition, defined as the maximum value of ΔR. Adjustable parameters of the algorithm, and their values used for ΔRmax quantities reported here, are: step size (2 nm), step width (10 nm), minimum integration area limit (fraction of total: 0.1), and maximum integration area limit (fraction of total: 1).

B1: Fe(III) BP E57D: Fe(III) BP with Glu57 substituted by Asp to weaken Fe(III) affinity (protein, UniProt P35755 24-332, looked up, variant E57D)
Iron-utilization periplasmic …: DITVYNGQHKEAATAVAKAFEQETGIKVTLNSGKSEQLAGQLKEEGDKTPADVFYTDQTATFADLSEAGLLAPISEQTIQQTAQKGVPLAPKKDWIALSGRSRVVVYDHTKLSEKDMEKSVLDYATPKWKGKIGYVSTSGAFLEQVVALSKMKGDKVALNWLKGLKENGKLYAKNSVALQAVENGEVPAALINNYYWYNLAKEKGVENLKSRLYFVRHQDPGALVSYSGAAVLKASKNQAEAQKFVDFLASKKGQEALVAARAEYPLRADVVSPFNLEPYEKLEAPVVSATTAQDKEHAIKLIEEAGLK
[1]
  Kd: ~0.03 µM

B2: Fe(III) BP E203C-acrylodan (conjugate, UniProt P35755 24-332, looked up, variant E203C)
Iron-utilization periplasmic …: DITVYNGQHKEAATAVAKAFEQETGIKVTLNSGKSEQLAGQLKEEGDKTPADVFYTEQTATFADLSEAGLLAPISEQTIQQTAQKGVPLAPKKDWIALSGRSRVVVYDHTKLSEKDMEKSVLDYATPKWKGKIGYVSTSGAFLEQVVALSKMKGDKVALNWLKGLKENGKLYAKNSVALQAVENGEVPAALINNYYWYNLAKCKGVENLKSRLYFVRHQDPGALVSYSGAAVLKASKNQAEAQKFVDFLASKKGQEALVAARAEYPLRADVVSPFNLEPYEKLEAPVVSATTAQDKEHAIKLIEEAGLK
modifications: acrylodan label
[2]
  Kd: ~138 µM

B3: ribose BP L236C NBD (conjugate, UniProt P02925 26-296, looked up, variant L236C)
Ribose import binding protein …: KDTIALVVSTLNNPFFVSLKDGAQKEADKLGYNLVVLDSQNNPAKELANVQDLTVRGTKILLINPTDSDAVGNAVKMANQANIPVITLDRQATKGEVVSHIASDNVLGGKIAGDYIAKKAGEGAKVIELQGIAGTSAARERGEGFQQAVAAHKFNVLASQPADFDRIKGLNVMQNLLTAHPDVQAVFAQNDEMALGALRALQTAGKSDVMVVGFDGTPDGEKAVNDGKLAATIAQCPDQIGAKGVETADKVLKGEKVQAKYPVDLKLVVKQ
modifications: NBD label
[3]
  ΔIstd: 0.11
  ΔRmax: 1.96

B4: ribose BP T135C NBD (conjugate, UniProt P02925 26-296, looked up, variant T135C)
Ribose import binding protein …: KDTIALVVSTLNNPFFVSLKDGAQKEADKLGYNLVVLDSQNNPAKELANVQDLTVRGTKILLINPTDSDAVGNAVKMANQANIPVITLDRQATKGEVVSHIASDNVLGGKIAGDYIAKKAGEGAKVIELQGIAGCSAARERGEGFQQAVAAHKFNVLASQPADFDRIKGLNVMQNLLTAHPDVQAVFAQNDEMALGALRALQTAGKSDVMVVGFDGTPDGEKAVNDGKLAATIAQLPDQIGAKGVETADKVLKGEKVQAKYPVDLKLVVKQ
modifications: NBD dye conjugate
[3]
  ΔIstd: 0.08
  ΔRmax: 0.22

B5: ribose BP L265C JPW4045 (conjugate, UniProt P02925 26-296, looked up, variant L265C)
Ribose import binding protein …: KDTIALVVSTLNNPFFVSLKDGAQKEADKLGYNLVVLDSQNNPAKELANVQDLTVRGTKILLINPTDSDAVGNAVKMANQANIPVITLDRQATKGEVVSHIASDNVLGGKIAGDYIAKKAGEGAKVIELQGIAGTSAARERGEGFQQAVAAHKFNVLASQPADFDRIKGLNVMQNLLTAHPDVQAVFAQNDEMALGALRALQTAGKSDVMVVGFDGTPDGEKAVNDGKLAATIAQLPDQIGAKGVETADKVLKGEKVQAKYPVDCKLVVKQ
modifications: JPW4045 label
[3]
  ΔIstd: 0.02
  ΔRmax: 0.12

B6: ribose BP T135C JPW4042 (conjugate, UniProt P02925 26-296, looked up, variant T135C)
Ribose import binding protein …: KDTIALVVSTLNNPFFVSLKDGAQKEADKLGYNLVVLDSQNNPAKELANVQDLTVRGTKILLINPTDSDAVGNAVKMANQANIPVITLDRQATKGEVVSHIASDNVLGGKIAGDYIAKKAGEGAKVIELQGIAGCSAARERGEGFQQAVAAHKFNVLASQPADFDRIKGLNVMQNLLTAHPDVQAVFAQNDEMALGALRALQTAGKSDVMVVGFDGTPDGEKAVNDGKLAATIAQLPDQIGAKGVETADKVLKGEKVQAKYPVDLKLVVKQ
modifications: JPW4042 dye conjugate
[3]
  ΔIstd: 0.02
  ΔRmax: 0.35

B7: ribose BP T135C Acrylodan (conjugate, UniProt P02925 26-296, looked up, variant T135C)
Ribose import binding protein …: KDTIALVVSTLNNPFFVSLKDGAQKEADKLGYNLVVLDSQNNPAKELANVQDLTVRGTKILLINPTDSDAVGNAVKMANQANIPVITLDRQATKGEVVSHIASDNVLGGKIAGDYIAKKAGEGAKVIELQGIAGCSAARERGEGFQQAVAAHKFNVLASQPADFDRIKGLNVMQNLLTAHPDVQAVFAQNDEMALGALRALQTAGKSDVMVVGFDGTPDGEKAVNDGKLAATIAQLPDQIGAKGVETADKVLKGEKVQAKYPVDLKLVVKQ
modifications: acrylodan conjugate
[3]
  ΔIstd: 0.31
  ΔRmax: 6.26

B8: ribose BP L265C NBD (conjugate, UniProt P02925 26-296, looked up, variant L265C)
Ribose import binding protein …: KDTIALVVSTLNNPFFVSLKDGAQKEADKLGYNLVVLDSQNNPAKELANVQDLTVRGTKILLINPTDSDAVGNAVKMANQANIPVITLDRQATKGEVVSHIASDNVLGGKIAGDYIAKKAGEGAKVIELQGIAGTSAARERGEGFQQAVAAHKFNVLASQPADFDRIKGLNVMQNLLTAHPDVQAVFAQNDEMALGALRALQTAGKSDVMVVGFDGTPDGEKAVNDGKLAATIAQLPDQIGAKGVETADKVLKGEKVQAKYPVDCKLVVKQ
modifications: NBD dye conjugate
[3]
  ΔIstd: 0.01
  ΔRmax: 0.13

B9: ribose BP L265C JPW4042 (conjugate, UniProt P02925 26-296, looked up, variant L265C)
Ribose import binding protein …: KDTIALVVSTLNNPFFVSLKDGAQKEADKLGYNLVVLDSQNNPAKELANVQDLTVRGTKILLINPTDSDAVGNAVKMANQANIPVITLDRQATKGEVVSHIASDNVLGGKIAGDYIAKKAGEGAKVIELQGIAGTSAARERGEGFQQAVAAHKFNVLASQPADFDRIKGLNVMQNLLTAHPDVQAVFAQNDEMALGALRALQTAGKSDVMVVGFDGTPDGEKAVNDGKLAATIAQLPDQIGAKGVETADKVLKGEKVQAKYPVDCKLVVKQ
modifications: JPW4042 label
[3]
  ΔIstd: 0.91
  ΔRmax: 2.13

B10: ribose BP L265C JPW4039 (conjugate, UniProt P02925 26-296, looked up, variant L265C)
Ribose import binding protein …: KDTIALVVSTLNNPFFVSLKDGAQKEADKLGYNLVVLDSQNNPAKELANVQDLTVRGTKILLINPTDSDAVGNAVKMANQANIPVITLDRQATKGEVVSHIASDNVLGGKIAGDYIAKKAGEGAKVIELQGIAGTSAARERGEGFQQAVAAHKFNVLASQPADFDRIKGLNVMQNLLTAHPDVQAVFAQNDEMALGALRALQTAGKSDVMVVGFDGTPDGEKAVNDGKLAATIAQLPDQIGAKGVETADKVLKGEKVQAKYPVDCKLVVKQ
modifications: JPW4039 label
[3]
  ΔIstd: 0.01
  ΔRmax: 0.11

B11: ribose BP T135C Fluorescein (conjugate, UniProt P02925 26-296, looked up, variant T135C)
Ribose import binding protein …: KDTIALVVSTLNNPFFVSLKDGAQKEADKLGYNLVVLDSQNNPAKELANVQDLTVRGTKILLINPTDSDAVGNAVKMANQANIPVITLDRQATKGEVVSHIASDNVLGGKIAGDYIAKKAGEGAKVIELQGIAGCSAARERGEGFQQAVAAHKFNVLASQPADFDRIKGLNVMQNLLTAHPDVQAVFAQNDEMALGALRALQTAGKSDVMVVGFDGTPDGEKAVNDGKLAATIAQLPDQIGAKGVETADKVLKGEKVQAKYPVDLKLVVKQ
modifications: fluorescein conjugate
[3]
  ΔIstd: 0.18
  ΔRmax: 1.79

B12: ribose BP L265C Acrylodan (conjugate, UniProt P02925 26-296, looked up, variant L265C)
Ribose import binding protein …: KDTIALVVSTLNNPFFVSLKDGAQKEADKLGYNLVVLDSQNNPAKELANVQDLTVRGTKILLINPTDSDAVGNAVKMANQANIPVITLDRQATKGEVVSHIASDNVLGGKIAGDYIAKKAGEGAKVIELQGIAGTSAARERGEGFQQAVAAHKFNVLASQPADFDRIKGLNVMQNLLTAHPDVQAVFAQNDEMALGALRALQTAGKSDVMVVGFDGTPDGEKAVNDGKLAATIAQLPDQIGAKGVETADKVLKGEKVQAKYPVDCKLVVKQ
modifications: acrylodan conjugate
[3]
  ΔIstd: 0.20
  ΔRmax: 0.70

Reference: patent US9625458B2, “Biosensor” (priority 2002, dated 2017)
